We go through 58 variants from the FLAb antibody collection (doi:10.7554/elife.23156).

The Kd is the constant that tells how readily two partners part at equilibrium.

To fix the notation:
B1: scFv; the commonest letter at each place (parent)
chain 1: EVKLDETGGGLVQPGRPMKLSCVASGFTFSDYWMNWVRQSPEKGLEWVAQIRNKPYNYETYYSDSVKGRFTISRDDSKSSVYLQMNNLRVEDMGIYYCTGSYYGMDYWGQGTSVTVS
chain 2: DVVMTQTPLSLPVSLGDQASISCRSSQSLVHSNGNTYLRWYLQKPGQSPKVLIYKVSNRFSGVPDRFSGSGSGTDFTLKISRVEAEDLGVYFCSQSTHVPWTFGGGTKLEIK

The variants in the data set “fluorescein” derive from B1. Briefly: Kd (Tite-Seq). To be noted: with fluorescein; format: scFv 4-4-20, heavy + light.
The variants in data set [1] derive from B1. Briefly: yeast surface expression (ratio to wild type); higher = more expressed. Conditions: format: scFv 4-4-20, heavy + light.

Some results are limits rather than exact numbers.

As to chain 1 G104L G109K, the Kd with fluorescein was at least 10 µM. The yeast surface expression in data set [1] was found to be 0.179.

For chain 1 G100V Y107H, the Kd with fluorescein was at least 10 µM. Also, the yeast surface expression in data set [1] was 0.772.

In the case of chain 1 G100V Y107M, the Kd in the data set with fluorescein was at least 10 µM. Further, in data set [1], the yeast surface expression was 0.726.

Turning to chain 1 G104H G109H, in the data set with fluorescein, the Kd is at least 10 µM. The yeast surface expression in data set [1] was determined as 0.765.

As for chain 1 G100V G109Y, in the data set with fluorescein, the Kd is at least 10 µM. Further, the yeast surface expression in data set [1] is 0.271.

chain 1 G100V G109L: the Kd in the data set with fluorescein was at least 10 µM. In addition, in data set [1], the yeast surface expression came out at 0.256.

As for chain 1 G100Y G104C, the Kd with fluorescein is at least 10 µM. Further, the yeast surface expression in data set [1] was determined as 0.183.

In the case of chain 1 G104Q D106K, the Kd in the data set with fluorescein is at least 10 µM. Besides, the yeast surface expression in data set [1] was 0.274.

As to chain 1 G104N G109Y, the Kd with fluorescein is at least 10 µM. The yeast surface expression in data set [1] worked out at 0.305.

In the case of chain 1 G104I Y107D, the Kd with fluorescein was at least 10 µM. In addition, in data set [1], the yeast surface expression was determined as 0.2.

In the case of chain 1 G104I Y107N, the Kd with fluorescein was at least 10 µM. Besides, the yeast surface expression in data set [1] was 0.247.

For chain 1 G104R D106P Y107A, the Kd with fluorescein is at least 10 µM. In addition, in data set [1], the yeast surface expression was found to be 0.359.

Consider chain 1 G104M M105R, for which the Kd in the data set with fluorescein is at least 10 µM. In addition, the yeast surface expression in data set [1] is 0.619.

For chain 1 G104M Y107H, the Kd in the data set with fluorescein is at least 10 µM. Further, the yeast surface expression in data set [1] was found to be 0.555.

chain 1 G104H D106H: the Kd in the data set with fluorescein is at least 10 µM. Besides, the yeast surface expression in data set [1] is 0.586.

As to chain 1 G104A D106Q Y107E, in the data set with fluorescein, the Kd is at least 10 µM. In addition, the yeast surface expression in data set [1] was found to be 0.519.

As for chain 1 G104T Y107P, the Kd in the data set with fluorescein is at least 10 µM. Also, the yeast surface expression in data set [1] came out at 0.313.

As for chain 1 G104F W108I, in the data set with fluorescein, the Kd is at least 10 µM. Besides, in data set [1], the yeast surface expression was 0.146.

As to chain 1 G104F W108R, the Kd with fluorescein is 0.02 µM. Moreover, the yeast surface expression in data set [1] was found to be 0.146.

Consider chain 1 G104F W108F, for which the Kd with fluorescein is at least 10 µM. In addition, in data set [1], the yeast surface expression is 0.387.

On to chain 1 G104F W108T, for which the Kd with fluorescein was at least 10 µM. Besides, the yeast surface expression in data set [1] amounted to 0.194.

As to chain 1 G104E Y107A, in the data set with fluorescein, the Kd is at least 10 µM. In addition, in data set [1], the yeast surface expression came out at 0.736.

Take chain 1 G104T D106T Y107L: the Kd in the data set with fluorescein was at least 10 µM. Also, the yeast surface expression in data set [1] stood at 0.547.

Consider chain 1 G104L M105G Y107F, for which, in the data set with fluorescein, the Kd is at least 10 µM. Besides, in data set [1], the yeast surface expression was found to be 0.414.

For the variant chain 1 G100W Y103S, in the data set with fluorescein, the Kd was at least 10 µM. Besides, the yeast surface expression in data set [1] was 0.463.

On to chain 1 G104P Y107M G109M, for which the Kd in the data set with fluorescein was at least 10 µM. Besides, the yeast surface expression in data set [1] is 0.257.

As for chain 1 G104F D106G, the Kd in the data set with fluorescein was at least 10 µM. Further, in data set [1], the yeast surface expression was 0.169.

As for chain 1 G104F D106K, the Kd with fluorescein was at least 10 µM. The yeast surface expression in data set [1] came to 0.201.

Turning to chain 1 G100Y G109W, in the data set with fluorescein, the Kd is at least 10 µM. In data set [1], the yeast surface expression worked out at 0.26.

For the variant chain 1 G100Y G109L, the Kd with fluorescein was at least 10 µM. Besides, in data set [1], the yeast surface expression is 0.306.

As for chain 1 G100Y G109P, the Kd with fluorescein is at least 10 µM. Further, the yeast surface expression in data set [1] was 0.22.

In the case of chain 1 G104K D106H, the Kd with fluorescein is at least 10 µM. The yeast surface expression in data set [1] was found to be 0.594.

In the case of chain 1 G104L W108R, in the data set with fluorescein, the Kd was at least 10 µM. Further, the yeast surface expression in data set [1] worked out at 0.278.

With chain 1 G104L W108G, the Kd with fluorescein was at least 10 µM. The yeast surface expression in data set [1] worked out at 0.178.

With chain 1 G104L W108C, in the data set with fluorescein, the Kd is at least 10 µM. Besides, in data set [1], the yeast surface expression was 0.296.

On to chain 1 G104K Y107P G109N, for which the Kd in the data set with fluorescein is at least 10 µM. Moreover, the yeast surface expression in data set [1] was found to be 0.307.

For chain 1 G100T M105W, the Kd in the data set with fluorescein is at least 10 µM. Further, the yeast surface expression in data set [1] came out at 0.733.

With chain 1 G100T M105T, the Kd with fluorescein was at least 10 µM. Moreover, in data set [1], the yeast surface expression was 0.909.

In the case of chain 1 G100T M105C, the Kd with fluorescein was at least 10 µM. Besides, in data set [1], the yeast surface expression was 0.754.

On to chain 1 G100T M105G, for which, in the data set with fluorescein, the Kd was at least 10 µM. In data set [1], the yeast surface expression was 0.878.

chain 1 G100T Y102H D106M: the dissociation constant Kd with fluorescein was at least 10 µM. The yeast surface expression in data set [1] worked out at 1.02.

For the variant chain 1 G104D W108Q, the Kd in the data set with fluorescein was at least 10 µM. Further, the yeast surface expression in data set [1] worked out at 0.249.

Take chain 1 G104D W108T: the Kd in the data set with fluorescein is at least 10 µM. Besides, the yeast surface expression in data set [1] worked out at 0.417.

chain 1 G104Q Y107G W108I: the Kd with fluorescein was at least 10 µM. Further, in data set [1], the yeast surface expression worked out at 0.271.

In the case of chain 1 G104T D106C Y107Q, the Kd with fluorescein was at least 10 µM. Further, the yeast surface expression in data set [1] worked out at 0.31.

As to chain 1 G100Y S101E, the Kd in the data set with fluorescein was at least 10 µM. Besides, the yeast surface expression in data set [1] was 0.708.

In the case of chain 1 G100Y S101P, the Kd in the data set with fluorescein was at least 10 µM. For the same variant, the yeast surface expression in data set [1] is 0.251.

With chain 1 G104V G109W, the Kd with fluorescein was at least 10 µM. In data set [1], the yeast surface expression was 1.57.

As to chain 1 G104T D106Y, the Kd with fluorescein is at least 10 µM. Besides, the yeast surface expression in data set [1] stood at 0.331.

chain 1 G100V G104F: in the data set with fluorescein, the Kd was at least 10 µM. Also, the yeast surface expression in data set [1] is 0.472.

Regarding chain 1 G100V G104D, in the data set with fluorescein, the Kd was at least 10 µM. The yeast surface expression in data set [1] was 0.777.

Turning to chain 1 G100V G104A, the Kd in the data set with fluorescein is at least 10 µM. Besides, the yeast surface expression in data set [1] is 0.747.

For chain 1 G100Y M105S, the Kd with fluorescein was at least 10 µM. For the same variant, the yeast surface expression in data set [1] worked out at 0.377.

For chain 1 G100Y M105R, in the data set with fluorescein, the Kd was at least 10 µM. In data set [1], the yeast surface expression is 0.513.

Turning to chain 1 G104M G109L, the Kd with fluorescein was at least 10 µM. In data set [1], the yeast surface expression came out at 0.0989.

Regarding chain 1 G104A M105P, the Kd with fluorescein was at least 10 µM. Further, the yeast surface expression in data set [1] was 0.375.

Regarding chain 1 G104A M105T, in the data set with fluorescein, the Kd was at least 10 µM. For the same variant, the yeast surface expression in data set [1] was found to be 0.685.

chain 1 G104A M105E: the Kd with fluorescein is at least 10 µM. Further, the yeast surface expression in data set [1] came out at 0.648.
